From patent publication US20070065895

What was measured:
GST-Asp1596-Arg1659-H = target: T1, GST-Asp1596-Arg1659-H
T1 chain: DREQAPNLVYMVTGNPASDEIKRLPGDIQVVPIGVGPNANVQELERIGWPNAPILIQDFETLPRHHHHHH

GST-Asp1587-Arg1668-H = target: T2, GST-Asp1587-Arg1668-H
T2 chain: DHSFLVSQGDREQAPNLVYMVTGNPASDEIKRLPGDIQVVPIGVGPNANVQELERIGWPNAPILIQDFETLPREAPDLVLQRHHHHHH

GST-Asp1459-Arg1668-H = target: T3, GST-Asp1459-Arg1668-H
T3 chain: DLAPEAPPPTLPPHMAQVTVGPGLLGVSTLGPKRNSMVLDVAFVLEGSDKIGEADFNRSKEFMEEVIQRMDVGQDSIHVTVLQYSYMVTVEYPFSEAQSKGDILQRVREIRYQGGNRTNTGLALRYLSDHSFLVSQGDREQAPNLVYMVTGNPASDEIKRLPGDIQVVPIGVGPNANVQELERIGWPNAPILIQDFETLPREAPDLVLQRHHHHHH

GST-Glu1554-Arg1668-H = target: T4, GST-Glu1554-Arg1668-H
T4 chain: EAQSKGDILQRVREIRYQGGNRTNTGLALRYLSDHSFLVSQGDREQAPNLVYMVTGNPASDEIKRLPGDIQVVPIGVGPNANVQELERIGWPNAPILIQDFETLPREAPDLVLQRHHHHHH

GST-Asp1596-Arg1668-H = target: T5, GST-Asp1596-Arg1668-H
T5 chain: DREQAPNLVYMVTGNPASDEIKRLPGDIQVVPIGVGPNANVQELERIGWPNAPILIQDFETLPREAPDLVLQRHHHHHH

B1: ADAMTS-13 (von Willebrand factor cleaving enzyme), as present in normal plasma (protein)
chain: AAGGILHLELLVAVGPDVFQAHQEDTERYVLTNLNIGAELLRDPSLGAQFRVHLVKMVILTEPEGAPNITANLTSSLLSVCGWSQTINPEDDTDPGHADLVLYITRFDLELPDGNRQVRGVTQLGGACSPTWSCLITEDTGFDLGVTIAHEIGHSFGLEHDGAPGSGCGPSGHVMASDGAAPRAGLAWSPCSRRQLLSLLSAGRARCVWDPPRPQPGSAGHPPDAQPGLYYSANEQCRVAFGPKAVACTFAREHLDMCQALSCHTDPLDQSSCSRLLVPLLDGTECGVEKWCSKGRCRSLVELTPIAAVHGRWSSWGPRSPCSRSCGGGVVTRRRQCNNPRPAFGGRACVGADLQAEMCNTQACEKTQLEFMSQQCARTDGQPLRSSPGGASFYHWGAAVPHSQGDALCRHMCRAIGESFIMKRGDSFLDGTRCMPSGPREDGTLSLCVSGSCRTFGCDGRMDSQQVWDRCQVCGGDNSTCSPRKGSFTAGRAREYVTFLTVTPNLTSVYIANHRPLFTHLAVRIGGRYVVAGKMSISPNTTYPSLLEDGRVEYRVALTEDRLPRLEEIRIWGPLQEDADIQVYRRYGEEYGNLTRPDITFTYFQPKPRQAWVWAAVRGPCSVSCGAGLRWVNYSCLDQARKELVETVQCQGSQQPPAWPEACVLEPCPPYWAVGDFGPCSASCGGGLRERPVRCVEAQGSLLKTLPPARCRAGAQQPAVALETCNPQPCPARWEVSEPSSCTSAGGAGLALENETCVPGADGLEAPVTEGPGSVDEKLPAPEPCVGMSCPPGWGHLDATSAGEKAPSPWGSIRTGAQAAHVWTPAAGSCSVSCGRGLMELRFLCMDSALRVPVQEELCGLASKPGSRREVCQAVPCPARWQYKLAACSVSCGRGVVRRILYCARAHGEDDGEEILLDTQCQGLPRPEPQEACSLEPCPPRWKVMSLGPCSASCGLGTARRSVACVQLDQGQDVEVDEAACAALVRPEASVPCLIADCTYRWHVGTWMECSVSCGDGIQRRRDTCLGPQAQAPVPADFCQHLPKPVTVRGCWAGPCVGQGTPSLVPHEEAAAPGRTTATPAGASLEWSQARGLLFSPAPQPRRLLPGPQENSVQSSACGRQHLEPTGTIDMRGPGQADCAVAIGRPLGEVVTLRVLESSLNCSAGDMLLLWGRLTWRKMCRKLLDMTFSSKTNTLVVRQRCGRPGGGVLLRYGSQLAPETFYRECDMQLFGPWGEIVSPSLSPATSNAGGCRLFINVAPHARIAIHALATNMGAGTEGANASYILIRDTHSLRTTAFHGQQVLYWESESSQAEMEFSEGFLKAQASLRGQYWTLQSWVPEMQDPQSWKGKEGT
For B1, the “cleavage fragment after 2 h reaction with normal plasma at 37 C (SDS-PAGE, western blot with anti-GST antibody)” value (“cleavage fragment after 2 h reaction” below) (GST-Asp1596-Arg1659-H) was “did not give the fragment or was difficult to give the fragment”, the “cleavage fragment after 2 h reaction” value (GST-Asp1587-Arg1668-H) was “the expected fragment (indicated by the arrowheads in the figure) was clearly yielded” and the “cleavage fragment after 2 h reaction” value (GST-Asp1459-Arg1668-H) was “did not give the fragment or was difficult to give the fragment”. For the same protein, the “cleavage fragment after 2 h reaction” value (GST-Glu1554-Arg1668-H) was “a very faint band was produced at the expected position”, the “cleavage fragment after 2 h reaction” value (GST-Asp1596-Arg1668-H) was “the expected fragment (indicated by the arrowheads in the figure) was clearly yielded” and the “cleavage fragment after reaction with plasma of TTP patients and family members against normal plasma (SDS-PAGE, western blot with anti-GST antibody)” value (GST-Asp1596-Arg1668-H) was “When each of plasma samples from two patients was reacted with GST-Asp^1596Arg^1668H, there was not detected the fragment which is yielded by the reaction with normal plasma; with plasma of about one-half ADAMTS-13 activity the fragment was yielded at smaller amounts than with the normal plasma”.
